Measurements taken from patent publication US20210139559A1 (XL PROTEIN, published 2021).
Like-named read-outs stand apart in the source and are kept apart here.

Columns and labels:
[1] = target: T1, human VEGF165 ligand (human, UniProt P15692-4 27-191); experiment: serial dilution mixed with 50 pM human VEGF165 in solution, unbound VEGF165 measured by ELISA
T1 construct: also called VEGF-A165
Experimental: The amount of unbound VEGF₁₆₅ was then measured by a human VEGF-specific ELISA (Human VEGF DuoSet ELISA kit, R&D Systems, CAT. No. DY293B-05).
(§1) Unbound human VEGF₁₆₅ or PDGF-BB was calculated using 4 parameters curve with the absorbance value. And the IC₅₀ of the tested fusion proteins and the reference was calculated using 4 parameters curve with unbound human VEGF₁₆₅ or PDGF-BB.

[2] = target: T1, human VEGF165 ligand; experiment: cell-based or functional assay
[3] = target: T2, human PDGF-BB ligand (human, UniProt P01127 82-190); experiment: serial dilution mixed with 1 ng/ml human PDGF-BB in solution, unbound PDGF-BB measured by ELISA
T2 sequence (P01127 82-190): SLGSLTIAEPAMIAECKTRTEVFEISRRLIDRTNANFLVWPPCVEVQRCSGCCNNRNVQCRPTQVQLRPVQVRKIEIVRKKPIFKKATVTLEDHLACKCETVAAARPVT
Experimental: The amount of unbound PDGF-BB was then measured by a human PDGF-BB-specific ELISA (Human PDGF-BB DuoSet ELISA kit, R&D Systems, CAT. No. DY220).
as §1

[4] = target: T2, human PDGF-BB ligand; experiment: native PAGE electromobility gel shift; alone or together with VEGF165
Experimental: EPS1104P was mixed with VEGF₁₆₅ (#C083, Novoprotein, Shanghai, China), PDGF-BB (#C199, Novoprotein, Shanghai, China) and VEGF+PDGF-BB, and incubated in an ice bath for 30 min. 40 μL of the above three incubation mixtures and EPS1104P were added to 10 μl of 5× Loading buffer (#ES005, Wanshenghaotian, Shanghai, China), respectively, and the four samples were loaded on a native PAGE gel (#NGSH2001-8T, Wanshenghaotian, Shanghai, China). The electrophoresis was run at 70 V for 6 hours. The gel was stained with Coomassie blue and then bleached. […] It is also possible to combine EPS1104P with both VEGF165 and PDGF-BB to form a stable complex.

[5] = target: T1, human VEGF165 ligand; experiment: cell-based or functional assay; remark: listed apart in the source

T1 sequence (P15692 other isoform, or with tags, fused parts or gaps limits assumed): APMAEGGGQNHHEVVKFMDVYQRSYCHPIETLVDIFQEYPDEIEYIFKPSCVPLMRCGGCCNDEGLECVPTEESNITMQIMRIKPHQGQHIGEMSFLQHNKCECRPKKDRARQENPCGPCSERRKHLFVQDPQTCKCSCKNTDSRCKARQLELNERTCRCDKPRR

B1: VEGFR1D2/R2D3-(GGGGS)3-PAS(200)-(GGGGS)3-PDGFRαD123 (receptor)
chain: SDTGRPFVEMYSEIPEIIHMTEGRELVIPCRVTSPNITVTLKKFPLDTLIPDGKRIIWDSRKGFIISNATYKEIGLLTCEATVNGHLYKTNYLTHRQTNTIIDVVLSPSHGIELSVGEKLVLNCTARTELNVGIDFNWEYPSSKHQHKKLVNRDLKTQSGSEMKKFLSTLTIDGVTRSDQGLYTCAASSGLMTKKNSTFVRVHEKGGGGSGGGGSGGGGSASPAAPAPASPAAPAPSAPAASPAAPAPASPAAPAPSAPAASPAAPAPASPAAPAPSAPAASPAAPAPASPAAPAPSAPAASPAAPAPASPAAPAPSAPAASPAAPAPASPAAPAPSAPAASPAAPAPASPAAPAPSAPAASPAAPAPASPAAPAPSAPAASPAAPAPASPAAPAPSAPAASPAAPAPASPAAPAPSAPAGGGGSGGGGSGGGGSQLSLPSILPNENEKVVQLNSSFSLRCFGESEVSWQYPMSEEESSDVEIRNEENNSGLFVTVLEVSSASAAHTGLYTCYYNHTQTEENELEGRHIYIYVPDPDVAFVPLGMTDYLVIVEDDDSAIIPCRTTDPETPVTLHNSEGVVPASYDSRQGFNGTFTVGPYICEATVKGKKFQTIPFNVYALKATSELDLEMEALKTVYKSGETIVVTCAVFNNEVVDLQWTYPGEVKGKGITMLEEIKVPSIKLVYTLTVPEATVKDSGDYECAARQATREVKEMKKVTISVHEKGHHHHHH
notes: also called EPS1107P
Question: What does the source list for B1?
Answer: IC50 [1]: 0.304 nM; Inhibition of HUVEC cells proliferation, IC50 [2]: 53.1 nM

B2: PDGFRαD123-PAS(200)-VEGFR1D2/R2D3 fusion protein (receptor)
chain: QLSLPSILPNENEKVVQLNSSFSLRCFGESEVSWQYPMSEEESSDVEIRNEENNSGLFVTVLEVSSASAAHTGLYTCYYNHTQTEENELEGRHIYIYVPDPDVAFVPLGMTDYLVIVEDDDSAIIPCRTTDPETPVTLHNSEGVVPASYDSRQGFNGTFTVGPYICEATVKGKKFQTIPFNVYALKATSELDLEMEALKTVYKSGETIVVTCAVFNNEVVDLQWTYPGEVKGKGITMLEEIKVPSIKLVYTLTVPEATVKDSGDYECAARQATREVKEMKKVTISVHEKGASPAAPAPASPAAPAPSAPAASPAAPAPASPAAPAPSAPAASPAAPAPASPAAPAPSAPAASPAAPAPASPAAPAPSAPAASPAAPAPASPAAPAPSAPAASPAAPAPASPAAPAPSAPAASPAAPAPASPAAPAPSAPAASPAAPAPASPAAPAPSAPAASPAAPAPASPAAPAPSAPAASPAAPAPASPAAPAPSAPAASDTGRPFVEMYSEIPEIIHMTEGRELVIPCRVTSPNITVTLKKFPLDTLIPDGKRIIWDSRKGFIISNATYKEIGLLTCEATVNGHLYKTNYLTHRQTNTIIDVVLSPSHGIELSVGEKLVLNCTARTELNVGIDFNWEYPSSKHQHKKLVNRDLKTQSGSEMKKFLSTLTIDGVTRSDQGLYTCAASSGLMTKKNSTFVRVHEKHHHHHHA
modifications: glycosylated (as purified from MEXi-293E medium)
notes: also called EPS1108P
Question: How did the IC50 [3] turn out when B2 was run?
Answer: The IC50 was 66.3 nM.

Question: What about the IC50 [1] of the same binder?
Answer: The IC50 was 0.32 nM.

Question: What about the “Inhibition of HUVEC cells proliferation, IC50” value (“Inhibition” below) [2] of the same binder?
Answer: Its value is 28.5 nM.

B3: VEGFR1D2/R2D3-PAS(200)-PDGFRαD123 (receptor)
chain: SDTGRPFVEMYSEIPEIIHMTEGRELVIPCRVTSPNITVTLKKFPLDTLIPDGKRIIWDSRKGFIISNATYKEIGLLTCEATVNGHLYKTNYLTHRQTNTIIDVVLSPSHGIELSVGEKLVLNCTARTELNVGIDFNWEYPSSKHQHKKLVNRDLKTQSGSEMKKFLSTLTIDGVTRSDQGLYTCAASSGLMTKKNSTFVRVHEKASPAAPAPASPAAPAPSAPAASPAAPAPASPAAPAPSAPAASPAAPAPASPAAPAPSAPAASPAAPAPASPAAPAPSAPAASPAAPAPASPAAPAPSAPAASPAAPAPASPAAPAPSAPAASPAAPAPASPAAPAPSAPAASPAAPAPASPAAPAPSAPAASPAAPAPASPAAPAPSAPAASPAAPAPASPAAPAPSAPAQLSLPSILPNENEKVVQLNSSFSLRCFGESEVSWQYPMSEEESSDVEIRNEENNSGLFVTVLEVSSASAAHTGLYTCYYNHTQTEENELEGRHIYIYVPDPDVAFVPLGMTDYLVIVEDDDSAIIPCRTTDPETPVTLHNSEGVVPASYDSRQGFNGTFTVGPYICEATVKGKKFQTIPFNVYALKATSELDLEMEALKTVYKSGETIVVTCAVFNNEVVDLQWTYPGEVKGKGITMLEEIKVPSIKLVYTLTVPEATVKDSGDYECAARQATREVKEMKKVTISVHEKGHHHHHH
notes: also called EPS1105P
Question: How did the IC50 [1] turn out when B3 was run?
Answer: Its IC50 is 0.546 nM.

Question: What about the “Inhibition” value [2] of the same binder?
Answer: Its value is 28.4 nM.

B4: PDGFRαD123-(GGGGS)3-PAS(200)-(GGGGS)3-VEGFR1D2/R2D3 (receptor)
chain: QLSLPSILPNENEKVVQLNSSFSLRCFGESEVSWQYPMSEEESSDVEIRNEENNSGLFVTVLEVSSASAAHTGLYTCYYNHTQTEENELEGRHIYIYVPDPDVAFVPLGMTDYLVIVEDDDSAIIPCRTTDPETPVTLHNSEGVVPASYDSRQGFNGTFTVGPYICEATVKGKKFQTIPFNVYALKATSELDLEMEALKTVYKSGETIVVTCAVFNNEVVDLQWTYPGEVKGKGITMLEEIKVPSIKLVYTLTVPEATVKDSGDYECAARQATREVKEMKKVTISVHEKGGGGGSGGGGSGGGGSASPAAPAPASPAAPAPSAPAASPAAPAPASPAAPAPSAPAASPAAPAPASPAAPAPSAPAASPAAPAPASPAAPAPSAPAASPAAPAPASPAAPAPSAPAASPAAPAPASPAAPAPSAPAASPAAPAPASPAAPAPSAPAASPAAPAPASPAAPAPSAPAASPAAPAPASPAAPAPSAPAASPAAPAPASPAAPAPSAPAGGGGSGGGGSGGGGSSDTGRPFVEMYSEIPEIIHMTEGRELVIPCRVTSPNITVTLKKFPLDTLIPDGKRIIWDSRKGFIISNATYKEIGLLTCEATVNGHLYKTNYLTHRQTNTIIDVVLSPSHGIELSVGEKLVLNCTARTELNVGIDFNWEYPSSKHQHKKLVNRDLKTQSGSEMKKFLSTLTIDGVTRSDQGLYTCAASSGLMTKKNSTFVRVHEKHHHHHH
notes: also called EPS1106P
Question: B4 was tested. Which IC50 [1] did it give?
Answer: Its IC50 is 0.555 nM.

Question: What about the “Inhibition” value [2] of the same binder?
Answer: The value was 39.7 nM.

B5: PDGFRαD123-PAS(400)-VEGFR1D2/R2D3 (receptor)
chain: QLSLPSILPNENEKVVQLNSSFSLRCFGESEVSWQYPMSEEESSDVEIRNEENNSGLFVTVLEVSSASAAHTGLYTCYYNHTQTEENELEGRHIYIYVPDPDVAFVPLGMTDYLVIVEDDDSAIIPCRTTDPETPVTLHNSEGVVPASYDSRQGFNGTFTVGPYICEATVKGKKFQTIPFNVYALKATSELDLEMEALKTVYKSGETIVVTCAVFNNEVVDLQWTYPGEVKGKGITMLEEIKVPSIKLVYTLTVPEATVKDSGDYECAARQATREVKEMKKVTISVHEKGASPAAPAPASPAAPAPSAPAASPAAPAPASPAAPAPSAPAASPAAPAPASPAAPAPSAPAASPAAPAPASPAAPAPSAPAASPAAPAPASPAAPAPSAPAASPAAPAPASPAAPAPSAPAASPAAPAPASPAAPAPSAPAASPAAPAPASPAAPAPSAPAASPAAPAPASPAAPAPSAPAASPAAPAPASPAAPAPSAPAASPAAPAPASPAAPAPSAPAASPAAPAPASPAAPAPSAPAASPAAPAPASPAAPAPSAPAASPAAPAPASPAAPAPSAPAASPAAPAPASPAAPAPSAPAASPAAPAPASPAAPAPSAPAASPAAPAPASPAAPAPSAPAASPAAPAPASPAAPAPSAPAASPAAPAPASPAAPAPSAPAASPAAPAPASPAAPAPSAPASDTGRPFVEMYSEIPEIIHMTEGRELVIPCRVTSPNITVTLKKFPLDTLIPDGKRIIWDSRKGFIISNATYKEIGLLTCEATVNGHLYKTNYLTHRQTNTIIDVVLSPSHGIELSVGEKLVLNCTARTELNVGIDFNWEYPSSKHQHKKLVNRDLKTQSGSEMKKFLSTLTIDGVTRSDQGLYTCAASSGLMTKKNSTFVRVHEKHHHHHH
notes: also called EPS1104P
Question: Which results are given for B5?
Answer: binding result [4]: binds; Inhibition of HUVEC cells proliferation, IC50 [5]: 1.43 nM; IC50 [1]: 0.495 nM
